Changes are numbered by the printed parent chain.
B1: IP14-H4L1: humanised IP14 antibody: VH SEQ ID NO: 5, VL SEQ ID NO: 10 (antibody, V domains shown)
VH: QVQLVQSGAEVKKPGASVKVSCKASGYTFTSYYMHWVRQAPGQGLEWMGIIHPSGGSTSYAQKFQGRVTMTRDTSTSTVYMELSSLRSEDTAVYYCARWSAKRGDFWGQGTLVTVSS
VL: EIVLTQSPATLSLSPGERANLSCRASESISNNLHWYQQKPHQAPRLLIKYASQSISGIPARFSGSGPGTDFNLTISSVEPEDFAVYYCQQSNSWPLTFGGGTKLEIKR
modifications: Variable region heavy chain humanised variant 4 (VH4); Variable region light chain humanised variant 1 (VL1)
B2: IP14-H4L6: humanised IP14 antibody: VH SEQ ID NO: 5, VL SEQ ID NO: 15 (antibody, V domains shown)
VH: B1 VH
VL: EIVLTQSPSTLSASVGDRVNITCRASESISNNLHWYQQKPHKAPKLLIYYASQSISGVPSRFSGSGSGTEFNLTISSVQPDDFATYYCQQSNSWPLTFGQGTKVEIKR
modifications: Variable region heavy chain humanised variant 4 (VH4); Variable region light chain humanised variant 6 (VL6)
B3: IP14-H4L7: humanised IP14 antibody: VH SEQ ID NO: 5, VL SEQ ID NO: 16 (antibody, V domains shown)
VH: B1 VH
VL: B1 VL with E1D, K49Y, I58V, P67S, G100Q, L104V
modifications: Variable region heavy chain humanised variant 4 (VH4); Variable region light chain humanised variant 7 (VL7)
B4: IP14-H4L8: humanised IP14 antibody: VH SEQ ID NO: 5, VL SEQ ID NO: 17 (antibody, V domains shown)
VH: B1 VH
VL: B1 VL with E1D, N20T, K49Y, I58V, P67S, N72T, G100Q, L104V
modifications: Variable region heavy chain humanised variant 4 (VH4); Variable region light chain humanised variant 8 (VL8)
B5: IP14-H4L4: humanised IP14 antibody: VH SEQ ID NO: 5, VL SEQ ID NO: 13 (antibody, V domains shown)
VH: B1 VH
VL: EIVLTQSPDFQSVTPKEKVNITCRASESISNNLHWYQQKPHQSPKLLIYYASQSISGVPSRFSGSGSGTDFNLTINSVEAEDAATYYCQQSNSWPLTFGGGTKLEIKR
modifications: Variable region heavy chain humanised variant 4 (VH4); Variable region light chain humanised variant 4 (VL4)
B6: IP14-H4L3: humanised IP14 antibody: VH SEQ ID NO: 5, VL SEQ ID NO: 12 (antibody, V domains shown)
VH: B1 VH
VL: B1 VL with E1D, N20T, H41G, K49Y, N72T, V78L
modifications: Variable region heavy chain humanised variant 4 (VH4); Variable region light chain humanised variant 3 (VL3)
B7: IP14-H4L2: humanised IP14 antibody: VH SEQ ID NO: 5, VL SEQ ID NO: 11 (antibody, V domains shown)
VH: B1 VH
VL: B1 VL with N20T, H41G, N72T
modifications: Variable region heavy chain humanised variant 4 (VH4); Variable region light chain humanised variant 2 (VL2)
B8: IP14-H6L5: humanised IP14 antibody: VH SEQ ID NO: 7, VL SEQ ID NO: 14 (antibody, V domains shown)
VH: QVQLVQSGGGLVKPGHSLRLSCAASGQSFSSYWMNWVRQAPGKGLEWIGMIHPSDSETILNQKFKDKATLSVDIAKNSAYLQMNSLRAEDTAVYYCSSWSAKRGDFWGQGTLVTVSS
VL: EIVLTQSPATLSLSPGERATLSCRASQGVSSNLAWYQQKPGQAPRLLIYDASNRATGIPARFSGSGPGTDFTLTISSLEPEDFAVYYCQQSNSWPLTFGQGTKVEIKR
modifications: Variable region heavy chain humanised variant 6 (VH6); Variable region light chain humanised variant 5 (VL5)
B9: IP14-H1L5: humanised IP14 antibody: VH SEQ ID NO: 2, VL SEQ ID NO: 14 (antibody, V domains shown)
VH: QVQLVQSGAEVKKPGHSVKVSCKASGQSFSSYWMNWVRQAPGQGLEWIGMIHPSDSETILNQKFKDKATLTVDISTSTAYMELSSPRSEDTAVYYCSSWSAKRGDFWGQGTLVTVSS
VL: B8 VL
modifications: Variable region heavy chain humanised variant 1 (VH1); Variable region light chain humanised variant 5 (VL5)
B10: IP14-H2L5: humanised IP14 antibody: VH SEQ ID NO: 3, VL SEQ ID NO: 14 (antibody, V domains shown)
VH: B9 VH with H16A, P86L
VL: B8 VL
modifications: Variable region heavy chain humanised variant 2 (VH2); Variable region light chain humanised variant 5 (VL5)
B11: IP14-H4L5: humanised IP14 antibody: VH SEQ ID NO: 5, VL SEQ ID NO: 14 (antibody, V domains shown)
VH: B1 VH
VL: B8 VL
modifications: Variable region heavy chain humanised variant 4 (VH4); Variable region light chain humanised variant 5 (VL5)

Target: T1, recombinant human MK (huMK) (Homo sapiens, UniProt P21741)
T1 sequence (P21741 21-143): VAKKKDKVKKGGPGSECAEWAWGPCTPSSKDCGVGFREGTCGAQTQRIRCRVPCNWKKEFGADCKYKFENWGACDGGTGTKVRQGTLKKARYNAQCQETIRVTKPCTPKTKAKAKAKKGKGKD
Assay: ELISA binding of humanised anti-MK antibodies to huMK
Conditions: ELISA, plates coated with 2 ug/mL huMK; read-out: Binding affinity for huMK, ELISA EC50
Method: (§1) The binding specificity and affinity of the humanised anti-MK antibodies to recombinant human MK (huMK) and murine MK (muMK) was assessed by ELISA. ELISA plates (Nunc Immuno MaxiSorp 96 well flat-bottom were coated with 100 uL of 2 ug/mL of either huMK or muMK in 2% BSA/PBS (overnight at room temperature). After washing, blocking (1 h at 37° C.), and washing again, the humanised anti-MK and chimeric antibodies described in Example 1 were analysed for binding to huMK or muMK at concentrations ranging between 3 μg/ml and 0.00004 μg/ml in 2% BSA/PBS (1 h at 37° C.). After washing, the binding of antibody was detected with goat anti-mouse IgG (Fab specific)-HRP conjugate (Sigma, Cat. No. A9917) and SigmaFast OPD substrate (Sigma, Cat. No. P9187). The reaction was stopped with 3 M HCl, absorbance read at 490 nm on a Dynex Technologies MRX TC II plate reader and the binding curves plotted. Binding affinity data for the humanised anti-MK antibodies to huMK and muMK are presented in Table 6 and Table 7 respectively, and in FIG. 3.
(§2) KD values for hIP14-H5L8, hIP14-H6L3 and hIP14-H6L8 was then compared with the KD values obtained for the corresponding murine IP14 precursor antibody and the chimeric antibody using the methods described in Example 2. […] Based on this finding, these candidate antibodies were produced to 100 mg scale to enable further testing in functional assays to determine biological function.

EC50, > 0.01 µM:
B1
B2
B3
B4
B5
B6
B7
B8
B9
B10
B11

Target: T2, murine MK (muMK) (Mus musculus, UniProt P12025)
T2 sequence (P12025 23-140): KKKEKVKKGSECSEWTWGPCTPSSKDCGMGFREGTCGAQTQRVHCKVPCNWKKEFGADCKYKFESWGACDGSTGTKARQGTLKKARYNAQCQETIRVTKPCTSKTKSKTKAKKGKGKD
Assay: ELISA binding of humanised anti-MK antibodies to muMK
Conditions: ELISA, plates coated with 2 ug/mL muMK; read-out: Binding affinity for muMK, ELISA EC50
Method: as §1, §2

EC50, > 0.01 µM:
B1
B2
B3
B4
B5
B6
B7
B8
B9
B10
B11

Source: US10590192B2, “Midkine antibody” (Cellmid Limited, priority 2014, dated 2020)
